# Reference: patent US8304189, “Nucleic acid molecules containing recombination sites and methods of using the same” (Life Technologies Corporation)
# Molecular target: Vaccinia DNA topoisomerase I (Vaccinia virus, UniProt P68698 P68698:1-314)
# Assay: covalent charging of vector at CCCTT, 37 C 15 min, NEB buffer 1; charged vector cloned the test insert with 93.6-95.1% efficiency
# Settings: ligated to EcoRI-cut pCR8/GW ends
# Protocol: TOPO charging. To 5 μg of ligated DNA, 3 μg of TOPO-5 oligonucleotide (5'-CAACA CTATC GGAAT A-3' (SEQ ID NO: 66), phosphorylated on the 5' end), 10 μl 5× NEB #1 (New England Biolabs, Inc., Beverly, Mass. cat. no. M0202S), and 5 μg of Vaccinia Topoisomerase I was added and the volume adjusted to 50 μl with water. This reaction was incubated at 37° C. for 15 minutes before addition of 5 μl of 10× TOPO Stop Buffer (1 M Tris-HCl, pH 7.5, 500 mM EDTA). The TOPO adapted vector was then gel purified and quantified using the Hoechst dye assay.
# Testing of TOPO cloning efficiency. TOPO cloning efficiency was determined using a 500 bp PCR fragment containing a bacterial lac promoter driving the lacZ alpha fragment, this positive control fragment is found in some of Invitrogen's TOPO T/A cloning kits, for example, cat. no. K4300-01. Cloning of this fragment generated blue colonies on X-gal plates and colonies without the cloned fragment were white. The ratio of the total number of blue colonies to the total number of colonies was representative of the efficiency of the TOPO reaction. Twenty nanograms of the Taq polymerase generated 500 bp PCR product was used per TOPO reaction.
# T/A TOPO QC testing. The pCR8/GW/TOPO system was tested by TOPO cloning a Platinum taq-generated 500 bp test insert and selected ORFs into pCR8/GW/TOPO. TOPO cloning efficiency was measured using standard QC procedures. […]
binder,measurement,value
"TOPO adapter duplex (TOPO-1/TOPO-5/TOPO-4) (dsDNA, 5'-phosphate on TOPO-5) DNA 1: AATTCGCCCTTATTCCGATAGTG DNA 2: CAACACTATCGGAATA DNA 3: AGGGCG",binding result,binds
